The text below walks through data of article PMC3940202, “Structure of Bacillus subtilis γ-glutamyltranspeptidase in complex with acivicin: diversity of the binding mode of a classical and electrophilic active-site-directed glutamate analogue” (Acta Crystallographica Section D: Biological Crystallography, 2014).

The target of this assay is T1, Bacillus subtilis γ-glutamyltranspeptidase large (L) subunit (Bacillus subtilis, UniProt P54422 36-402).
T1 construct: γ-glutamyltranspeptidase (GGT; EC 2.3.2.2) of Bacillus subtilis, large subunit, residues 36-402, formed from the precursor by autocatalytic cleavage before Thr403; The range 36-402 is what it gives for the L subunit of the protein; The His-tag segment and residues 396-402 are disordered in the crystal; also called GGT L subunit; His6-GGT (large subunit); source: E. coli C41(DE3), plasmid pCold …
T1 sequence (looked up): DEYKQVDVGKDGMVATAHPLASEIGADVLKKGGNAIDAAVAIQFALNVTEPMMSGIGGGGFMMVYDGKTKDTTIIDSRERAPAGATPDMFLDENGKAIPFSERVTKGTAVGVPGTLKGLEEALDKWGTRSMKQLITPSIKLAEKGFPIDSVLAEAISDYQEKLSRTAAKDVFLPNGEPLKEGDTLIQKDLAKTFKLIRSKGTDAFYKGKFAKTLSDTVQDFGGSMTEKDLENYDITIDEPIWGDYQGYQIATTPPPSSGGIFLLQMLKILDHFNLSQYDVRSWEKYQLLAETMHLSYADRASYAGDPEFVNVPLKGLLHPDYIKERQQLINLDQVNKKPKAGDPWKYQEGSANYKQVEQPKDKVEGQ
The experiment in a line: crystal structure; micro-oil batch method at 293 K; 10 mg/ml protein in 50 mM HEPES pH 7.0 mixed with 26%(w/v) PEG 3350, 0.7 M sodium thiocyanate, 6%(v/v) ethylene glycol; crystals soaked 2 h in 5 mM acivicin; refined at 1.8 Å; one heterodimer in the asymmetric unit. The note with it: both partners purified.

B1: Bacillus subtilis γ-glutamyltranspeptidase small (S) subunit (enzyme, UniProt P54422 403-587, looked up)
chain: TTHFTVADRWGNVVSYTTTIEQLFGTGIMVPDYGVILNNELTDFDAIPGGANEVQPNKRPLSSMTPTILFKDDKPVLTVGSPGGATIISSVLQTILYHIEYGMELKAAVEEPRIYTNSMSSYRYEDGVPKDVLSKLNGMGHKFGTSPVDIGNVQSISIDHENGTFKGVADSSRNGAAIGINLKRK
modifications: acivicin covalently bound through its C3 atom to Thr403 Oγ (crystal soaked for 120 min, PDB 3whs; not in the crystal without soaking, PDB 3whq)
notes: γ-glutamyltranspeptidase (GGT); Made as one His6-tagged precursor with the L subunit and processed autocatalytically; also called GGT S subunit
Turning to B1, the binding result was “binds”.
